Laboratory results from patent publication US20190375786A1, “STABLE PEPTIDES AND METHODS OF USE THEREOF” (Fred Hutchinson Cancer Research Center, priority 2016, published 2019).

Key:
trypsin = trypsin (Sus scrofa, UniProt P00761); test: Trypsin digestion resistance of soluble peptide, RP-HPLC; format: in vitro ADME, porcine; set-up: purchased Sigma Aldrich 6567; details: 500 U/ml trypsin, 30 minutes at 37.5° C.; HPLC peak vs untreated peptide
Outline: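 12.5 μg soluble peptide digested with 500 U/ml porcine trypsin in PBS, 30 min at 37.5° C; quenched with soybean trypsin inhibitor, with or without 10 mM DTT reduction afterwards. Intact peptide assessed by C-18 RP-HPLC, 5-45% acetonitrile/0.1% TFA gradient over 10 min.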

pepsin = pepsin (Sus scrofa, UniProt P00791); test: Pepsin digestion resistance in simulated gastric fluid, RP-HPLC; format: in vitro ADME, porcine; set-up: purchased Sigma Aldrich P7012; details: 500 U/ml pepsin in SGF pH 1.05, 30 minutes at 37.5° C.; HPLC peak vs untreated peptide
pepsin, sequence (P00791 60-385): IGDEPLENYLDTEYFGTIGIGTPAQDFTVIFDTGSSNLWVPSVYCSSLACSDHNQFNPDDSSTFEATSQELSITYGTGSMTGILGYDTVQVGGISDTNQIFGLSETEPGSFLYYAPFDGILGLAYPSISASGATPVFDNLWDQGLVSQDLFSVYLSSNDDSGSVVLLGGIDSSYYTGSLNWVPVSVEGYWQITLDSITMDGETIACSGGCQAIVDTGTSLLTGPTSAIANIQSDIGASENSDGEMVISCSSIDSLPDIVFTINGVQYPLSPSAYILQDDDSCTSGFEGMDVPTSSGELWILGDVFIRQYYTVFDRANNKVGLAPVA
Outline: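 Peptide (12.5 μg) incubated 30 min at 37.5 °C with or without 500 U/ml pepsin in simulated gastric fluid (pH 1.05; 2% NaCl in 0.7% HCl); some reactions quenched with 100 mM Tris and 10 mM DTT. Intact peptide followed by C-18 RP-HPLC (5–45% acetonitrile/0.1% TFA over 10 min) at 214 and 280 nm.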

[1] = Resistance to elevated temperature, HPLC; format: physicochemical; details: HPLC peak vs untreated peptide; for Resistance to Temperature (75° C.): 75° C. for one hour; for Resistance to Temperature (100° C.): 100° C. for one hour
Outline: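 Peptides were incubated at room temperature, 70° C or 100° C for one hour in ddH2O; another protocol used 70° C, 75° C or 100° C for one hour in 0.5 mM PBS, then pelleting and analysis of the supernatant. Remaining peptide was measured by C-18 RP-HPLC, 5–45% acetonitrile/0.1% TFA over 10 min.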

[2] = Resistance to reduction by DTT, RP-HPLC; format: physicochemical; details: 10 mM DTT in PBS, room temperature, 30 minutes; HPLC peak vs untreated peptide
Outline: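 Peptide (12.5 μg from a 2 mg/ml stock, or 0.015 mM final in PBS) was held 30 min at room temperature with or without 10 mM DTT. Reduced and non-reduced forms were compared by C-18 RP-HPLC using a 5–45% acetonitrile/0.1% TFA gradient over 10 min, with detection at 214 and 280 nm.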

[3] = Combined resistance grouping of hitchin peptides (FIG. 27, from Table 2 data); format: physicochemical; details: FIG. 27 grouping of hitchin peptides
Experimental: As shown by the data in TABLE 2, the tested peptides of the present disclosure show a range of resistance to proteases, reduction, and high temperature. The peptides were classified as high, medium, or low for each condition. […] For example, after a peptide is treated at 100° C., if the HPLC peak of the peptide is mostly absent as compared to HPLC peak of the peptide not treated at 100° C., then the peptide is classified as low or having low resistance to 100° C. After a peptide is treated with reducing conditions, if there is no or very minimal HPLC peak that overlaps with the HPLC peak of the peptide not treated with reducing conditions, then the peptide is classified as low or having low resistance to reducing conditions.
The peptides with the highest resistance data were further analyzed. […] The six peptides that were further tested were peptides comprising the sequences of SEQ ID NO: 27, SEQ ID NO: 24, SEQ ID NO: 6, SEQ ID NO: 10, SEQ ID NO: 12, and SEQ ID NO: 57, which were all hitchins. […] FIG. 27C is a sequence analysis of SEQ ID NO: 27, SEQ ID NO: 24, SEQ ID NO: 6, SEQ ID NO: 10, SEQ ID NO: 12, and SEQ ID NO: 57 from FIG. 27B. FIG. 27C identifies which amino acids are present at each position in SEQ ID NO: 27, SEQ ID NO: 24, SEQ ID NO: 6, SEQ ID NO: 10, SEQ ID NO: 12, and SEQ ID NO: 57. For example, at position one, all peptide sequences comprise a G amino acid residue; at position two, all peptide sequences comprise an S amino acid residue; at position three, all peptide sequences comprise either G, Q, or V amino acid, or null; and at position four, all peptide sequences comprise V, R, or K amino acid, or null. […] SEQ ID NO: 167 and SEQ ID NO: 168 describe sequences of peptides that are particularly resistant to reduction, pepsin, 75° C., and 100° C., which would typically degrade peptides. […] Additionally, SEQ ID NO: 169 describes sequences of peptides that are also particularly resistant to trypsin.

trypsin, sequence (P00761 9-231): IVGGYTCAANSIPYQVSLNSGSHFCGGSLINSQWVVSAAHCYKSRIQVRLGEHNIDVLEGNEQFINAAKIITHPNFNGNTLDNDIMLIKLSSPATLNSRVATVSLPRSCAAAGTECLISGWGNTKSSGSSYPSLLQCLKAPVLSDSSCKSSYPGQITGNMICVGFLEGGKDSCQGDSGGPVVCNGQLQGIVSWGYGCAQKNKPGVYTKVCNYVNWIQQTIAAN

Substance | Resistance to Trypsin (500 U/ml) (trypsin) | Resistance to Pepsin (500 U/ml) (pepsin) | Resistance to Temperature (75° C.) [1] | Resistance to Temperature (100° C.) [1] | Resistance to DTT Reduction (10 mM) [2] | combined resistance to reduction, pepsin and elevated temperatures such as 75° C. and 100° C. [3]
47 (GSAQEPVKGPVSTKPGSCPIILIRCAMLNPPNRCLKDTDCPGIKKCCEGSCGMACFVPQ) [compound 47] | Low (A peptide classified as low indicates that the majority (over 75%) of the HPLC peak of the treated peptide disappeared as compared to the HPLC peak of the untreated peptide) | Low (A peptide classified as low indicates that the majority (over 75%) of the HPLC peak of the treated peptide disappeared as compared to the HPLC peak of the untreated peptide) | High (A peptide classified as high indicates that the majority (at least 75%) of the HPLC peak of the treated peptide is still present as compared to the HPLC peak of the untreated peptide) | Low (A peptide classified as low indicates that the majority (over 75%) of the HPLC peak of the treated peptide disappeared as compared to the HPLC peak of the untreated peptide) | Low (A peptide classified as low indicates that the majority (over 75%) of the HPLC peak of the treated peptide disappeared as compared to the HPLC peak of the untreated peptide) | 
48 (GSGIGDPVTCLKSGAICHPVFCPRRYKQIGTCGLPGTKCCKKP) [compound 48] | Low (A peptide classified as low indicates that the majority (over 75%) of the HPLC peak of the treated peptide disappeared as compared to the HPLC peak of the untreated peptide) | High (A peptide classified as high indicates that the majority (at least 75%) of the HPLC peak of the treated peptide is still present as compared to the HPLC peak of the untreated peptide) | High (A peptide classified as high indicates that the majority (at least 75%) of the HPLC peak of the treated peptide is still present as compared to the HPLC peak of the untreated peptide) | High (A peptide classified as high indicates that the majority (at least 75%) of the HPLC peak of the treated peptide is still present as compared to the HPLC peak of the untreated peptide) | Low (A peptide classified as low indicates that the majority (over 75%) of the HPLC peak of the treated peptide disappeared as compared to the HPLC peak of the untreated peptide) | 
49 (GSSFGLCRLRRGFCARGRCRFPSIPIGRCSRFVQCCRRVW) [compound 49] | Low (A peptide classified as low indicates that the majority (over 75%) of the HPLC peak of the treated peptide disappeared as compared to the HPLC peak of the untreated peptide) | High (A peptide classified as high indicates that the majority (at least 75%) of the HPLC peak of the treated peptide is still present as compared to the HPLC peak of the untreated peptide) | High (A peptide classified as high indicates that the majority (at least 75%) of the HPLC peak of the treated peptide is still present as compared to the HPLC peak of the untreated peptide) | Low (A peptide classified as low indicates that the majority (over 75%) of the HPLC peak of the treated peptide disappeared as compared to the HPLC peak of the untreated peptide) | Low (A peptide classified as low indicates that the majority (over 75%) of the HPLC peak of the treated peptide disappeared as compared to the HPLC peak of the untreated peptide) | 
50 (GSLFCKGGSCHFGGCPSHLIKVGSCFGFRSCCKWPWNA) [compound 50] | Low (A peptide classified as low indicates that the majority (over 75%) of the HPLC peak of the treated peptide disappeared as compared to the HPLC peak of the untreated peptide) | Low (A peptide classified as low indicates that the majority (over 75%) of the HPLC peak of the treated peptide disappeared as compared to the HPLC peak of the untreated peptide) | High (A peptide classified as high indicates that the majority (at least 75%) of the HPLC peak of the treated peptide is still present as compared to the HPLC peak of the untreated peptide) | Low (A peptide classified as low indicates that the majority (over 75%) of the HPLC peak of the treated peptide disappeared as compared to the HPLC peak of the untreated peptide) | Low (A peptide classified as low indicates that the majority (over 75%) of the HPLC peak of the treated peptide disappeared as compared to the HPLC peak of the untreated peptide) | 
52 (GSEGDCPISEAIKCVEKCKEKVEVCEPGVCKCSG) [compound 52] | Low (A peptide classified as low indicates that the majority (over 75%) of the HPLC peak of the treated peptide disappeared as compared to the HPLC peak of the untreated peptide) | High (A peptide classified as high indicates that the majority (at least 75%) of the HPLC peak of the treated peptide is still present as compared to the HPLC peak of the untreated peptide) | High (A peptide classified as high indicates that the majority (at least 75%) of the HPLC peak of the treated peptide is still present as compared to the HPLC peak of the untreated peptide) | High (A peptide classified as high indicates that the majority (at least 75%) of the HPLC peak of the treated peptide is still present as compared to the HPLC peak of the untreated peptide) | Low (A peptide classified as low indicates that the majority (over 75%) of the HPLC peak of the treated peptide disappeared as compared to the HPLC peak of the untreated peptide) | 
GSAVCNLKRCQLSCRSLGLLGKCIGDKCECVKHG [SEQ ID NO: 8] |  |  |  |  |  | not highly resistant
GSGVPTDVKCRGSPQCIQPCKDAGMRFGKCMNGKCHCTPK [SEQ ID NO: 56] |  |  |  |  |  | not highly resistant
GSQIDTNVKCSGSSKCVKICIDRYNTRGAKCINGRCTCYP [SEQ ID NO: 35] |  |  |  |  |  | not highly resistant
GSQKILSNRCNNSSECIPHCIRIFGTRAAKCINRKCYCYP [SEQ ID NO: 6] |  |  |  |  |  | highly resistant
GSQVQTNVKCQGGSCASVCRREIGVAAGKCINGKCVCYRN [SEQ ID NO: 30] |  |  |  |  |  | not highly resistant
GSQVSTNKKCSNTSQCYKTCEKVVGVAAGKCMNGKCICYP [SEQ ID NO: 18] |  |  |  |  |  | not highly resistant
GSRPTDIKCSASYQCFPVCKSRFGKTNGRCVNGLCDCF [SEQ ID NO: 10] |  |  |  |  |  | highly resistant
GSVRIPVSCKHSGQCLKPCKDAGMRFGKCMNGKCDCTPK [SEQ ID NO: 24] |  |  |  |  |  | highly resistant
GSVVIGQRCYRSPDCYSACKKLVGKATGKCTNGRCDC [SEQ ID NO: 36] |  |  |  |  |  | not highly resistant
